{
  "source": "paper PMC11162810",
  "about": "“Functional redundancy in tRNA dihydrouridylation” (Nucleic Acids Research, 2024)",
  "molecules": {"B1": {"name": "BsDusB1 (Bacillus subtilis subsp. subtilis str. 168) (protein)", "chain": "MFKIGDIQLKNRVVLAPMAGVCNSAFRLTVKEFGAGLVCAEMVSDKAILYNNARTMGMLYIDEREKPLSLQIFGGKKETLVEAAKFVDQNTTADIIDINMGCPVPKITKCDAGAKWLLDPDKIYEMVSAVVDAVNKPVTVKMRMGWDEDHIFAVKNAQAVERAGGKAVALHGRTRVQMYEGTANWDIIKEVKQSVSIPVIGNGDVKTPQDAKRMLDETGVDGVMIGRAALGNPWMIYRTVQYLETGKLKEEPQVREKMAVCKLHLDRLIDLKGENVAVREMRKHAAWYLKGVKGNANVRNEINHCETREEFVQLLDAFTVEVEAKELQNAKVG", "notes": "monomer about 40 kDa; synthetic gene (Eurofins)"}, "B2": {"name": "BsDusB2 (Bacillus subtilis subsp. subtilis str. 168) (protein)", "chain": "MTENFWRELPRPFFVLAPMEDVTDVVFRHVVSEAGRPDVFFTEFTNSESYCHPDGKDSVRGRLTFTEDEQPIVAHIWGDKPENFRKMSIGMAELGFKGLDINMGCPVPNVAGNGKGSGLICRPAVAAELIQAAKAGGLPVSVKTRLGYTDVDEWREWLTHILKQDIANLSIHLRTRAEMSKVDAHWELIPEIKKLRDEVAPDTLLTINGDIPDRQTGLKLAEQYGVDGIMIGRGIFTNPFAFEKEPKEHSSKELLDLLRLHLDLHDEYSKEEARPYKPLPRFFKIYLRGFRGASELRNQCMNTKSTDEVRALLDDFERKYLDGIE", "notes": "monomer about 39 kDa; synthetic gene (Eurofins)"}},
  "key": {"[1]": {"molecular_target": "T1, BsDusB1 (Bacillus subtilis, UniProt P37567)", "T1 construct": "gene dus1; monomer about 40 kDa; synthetic gene (Eurofins)", "T1 sequence (P37567 1-333)": "B1 chain", "experiment": "copurified flavin, UV-visible absorption and fluorescence, SDS release", "format": "binding", "conditions": "non-covalent"}, "[2]": {"molecular_target": "T2, BsDusB2 (Bacillus subtilis, UniProt O31546)", "T2 construct": "gene dus2; monomer about 39 kDa; synthetic gene (Eurofins)", "T2 sequence (O31546 1-325)": "B2 chain", "experiment": "copurified flavin, UV-visible absorption and fluorescence, SDS release", "format": "binding", "conditions": "non-covalent"}, "[3]": {"substrate": "NC(=O)C1=CN([C@@H]2O[C@H](COP(=O)(O)OP(=O)(O)OC[C@H]3O[C@@H](n4cnc5c(N)ncnc54)[C@H](O)[C@@H]3O)[C@@H](O)[C@H]2O)C=CC1", "experiment": "purified protein", "format": "biochemical, Bacillus subtilis", "conditions": "aerobic (NAD(P)H oxidase, no tRNA mentioned)"}, "[4]": {"substrate": "NC(=O)C1=CN([C@@H]2O[C@H](COP(=O)(O)OP(=O)(O)OC[C@H]3O[C@@H](n4cnc5c(N)ncnc54)[C@H](OP(=O)(O)O)[C@@H]3O)[C@@H](O)[C@H]2O)C=CC1", "experiment": "purified protein", "format": "biochemical, Bacillus subtilis", "conditions": "aerobic (NAD(P)H oxidase, no tRNA mentioned)"}},
  "data": [
    {"molecule": "Cc1cc2nc3c(=O)[nH]c(=O)nc-3n(C[C@H](O)[C@H](O)[C@H](O)COP(=O)(O)O)c2cc1C", "note": "[FMN]", "values": [
      {"measurement": "copurified flavin, UV-visible absorption and fluorescence, SDS release", "setting": "[1]", "value": "both BsDusB enzymes are flavoproteins with the FMN non-covalently bound to the apoprotein"},
      {"measurement": "copurified flavin, UV-visible absorption and fluorescence, SDS release", "setting": "[2]", "value": "both BsDusB enzymes are flavoproteins with the FMN non-covalently bound to the apoprotein"}
    ]},
    {"molecule": "B1", "values": [
      {"measurement": "Km", "setting": "[3]", "value": "21 ± 4", "unit": "µM"},
      {"measurement": "kcat", "setting": "[3]", "value": "0.013 ± 0.0014", "unit": "s⁻¹"},
      {"measurement": "kcat/Km", "setting": "[3]", "value": 600, "unit": "M⁻¹ s⁻¹"},
      {"measurement": "Km", "setting": "[4]", "value": "18 ± 3", "unit": "µM"},
      {"measurement": "kcat", "setting": "[4]", "value": "0.013 ± 0.002", "unit": "s⁻¹"},
      {"measurement": "kcat/Km", "setting": "[4]", "value": 700, "unit": "M⁻¹ s⁻¹"}
    ]},
    {"molecule": "B2", "values": [
      {"measurement": "Km", "setting": "[3]; kcat error missing in the table", "value": "22 ± 4", "unit": "µM"},
      {"measurement": "Km", "setting": "[4]", "value": "2.1 ± 0.2", "unit": "µM"},
      {"measurement": "kcat", "setting": "[4]", "value": "0.7 ± 0.1", "unit": "s⁻¹"},
      {"measurement": "kcat/Km", "setting": "[4]", "value": 300000, "unit": "M⁻¹ s⁻¹"}
    ]}
  ]
}
